We go through 2 molecules from PMC10506259, “A glycosylated Phr1 protein is induced by calcium stress and its expression is positively controlled by the calcium/calcineurin signaling transcription factor Crz1 in Candida albicans”.

Series [1] addresses T1, 6xHis-Crz1 (CaCrz1) (Candida albicans, UniProt Q5A4H5 1-731).
T1 sequence: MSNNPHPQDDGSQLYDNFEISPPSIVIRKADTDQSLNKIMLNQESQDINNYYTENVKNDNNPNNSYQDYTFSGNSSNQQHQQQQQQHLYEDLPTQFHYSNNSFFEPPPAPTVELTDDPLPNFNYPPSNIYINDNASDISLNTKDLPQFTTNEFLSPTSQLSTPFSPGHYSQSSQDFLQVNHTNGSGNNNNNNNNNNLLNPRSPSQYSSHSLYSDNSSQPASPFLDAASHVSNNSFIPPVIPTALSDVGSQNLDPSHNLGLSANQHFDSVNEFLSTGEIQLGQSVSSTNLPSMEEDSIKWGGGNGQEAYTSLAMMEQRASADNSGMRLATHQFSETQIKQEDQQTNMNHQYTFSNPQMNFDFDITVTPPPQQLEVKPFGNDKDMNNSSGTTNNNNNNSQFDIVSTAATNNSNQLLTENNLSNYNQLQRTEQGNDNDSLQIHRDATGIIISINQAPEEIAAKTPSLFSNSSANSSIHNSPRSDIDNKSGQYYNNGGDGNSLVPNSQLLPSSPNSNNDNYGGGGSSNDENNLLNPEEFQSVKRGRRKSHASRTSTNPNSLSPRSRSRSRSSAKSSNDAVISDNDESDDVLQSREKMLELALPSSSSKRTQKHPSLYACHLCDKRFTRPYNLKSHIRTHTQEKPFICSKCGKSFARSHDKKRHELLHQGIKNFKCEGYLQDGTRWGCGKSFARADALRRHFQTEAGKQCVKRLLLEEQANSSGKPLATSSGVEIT
The series is described as follows: EMSA; 1 ug protein; DIG Gel Shift Kit (Roche), per manufacturer; buffer, salt, pH and temperature not stated. The settings on record: protein: recombinant; tags: His6; label: DIG at 3' end; blunt. (A gel shift assay detects complexes by their altered migration in electrophoresis.)

Series [2] concerns the target T1, 6xHis-Crz1 (CaCrz1). Briefly: competition; unlabelled probe abolished binding to DIG-labelled N1; 1 ug protein; DIG Gel Shift Kit (Roche), per manufacturer; buffer, salt, pH and temperature not stated. The conditions noted are these: protein: recombinant; tags: His6; blunt.

B1: EMSA_PHR1_F/R (PHR1 promoter CDRE probe) (dsDNA)
DNA 1: CCTTTCTCATAGGAATTCATCGACGCCTCATTCATACTAATATAATAGGT
DNA 2: ACCTATTATATTAGTATGAATGAGGCGTCGATGAATTCCTATGAGAAAGG
With B1, the binding result with 6xHis-Crz1 (CaCrz1) [1] is listed as “binds”.

B2: unlabelled EMSA_PHR1_F/R (specific competitor) (dsDNA)
DNA 1: CCTTTCTCATAGGAATTCATCGACGCCTCATTCATACTAATATAATAGGT
DNA 2: ACCTATTATATTAGTATGAATGAGGCGTCGATGAATTCCTATGAGAAAGG
Consider B2, for which the binding result with 6xHis-Crz1 (CaCrz1) [2] was “binds”.
